Assay results from article PMC12311180, “Structure and mechanism of the RalGAP tumor suppressor complex” (Nature Communications, 2025).

Key:
[1] = biological target: the molecule itself; assay: cryo-EM structure; RGα2/RGβ/κB-Ras2 complex from Expi293F, FLAG affinity and Superose 6 in 20 mM HEPES pH 7.5, 150 mM NaCl, 2 mM MgCl2, 1 mM TCEP; single particle analysis of the half-particle, 3.8 Å overall
[2] = biological target: T1, RalGAPα2 (RGα2), full length, co-expressed in Expi293F and purified by FLAG affinity (UniProt Q2PPJ7 1-1873); assay: as above; conditions: both partners purified
T1 construct: RalGAPα2, catalytic α-subunit of the RalGAP2 complex; catalytic asparagine N1742; residues 1-73 not resolved in the map; residue numbers (N1742, R1738, N943) are used together with human patient variants; also called RGα2^fl; source: Expi293F cells, transfected, purified (M2 anti-FLAG beads, 3xFLAG peptide elution; Superose 6 for cryo-EM)
T1 sequence (Q2PPJ7 whole entry, the tested form may be a part): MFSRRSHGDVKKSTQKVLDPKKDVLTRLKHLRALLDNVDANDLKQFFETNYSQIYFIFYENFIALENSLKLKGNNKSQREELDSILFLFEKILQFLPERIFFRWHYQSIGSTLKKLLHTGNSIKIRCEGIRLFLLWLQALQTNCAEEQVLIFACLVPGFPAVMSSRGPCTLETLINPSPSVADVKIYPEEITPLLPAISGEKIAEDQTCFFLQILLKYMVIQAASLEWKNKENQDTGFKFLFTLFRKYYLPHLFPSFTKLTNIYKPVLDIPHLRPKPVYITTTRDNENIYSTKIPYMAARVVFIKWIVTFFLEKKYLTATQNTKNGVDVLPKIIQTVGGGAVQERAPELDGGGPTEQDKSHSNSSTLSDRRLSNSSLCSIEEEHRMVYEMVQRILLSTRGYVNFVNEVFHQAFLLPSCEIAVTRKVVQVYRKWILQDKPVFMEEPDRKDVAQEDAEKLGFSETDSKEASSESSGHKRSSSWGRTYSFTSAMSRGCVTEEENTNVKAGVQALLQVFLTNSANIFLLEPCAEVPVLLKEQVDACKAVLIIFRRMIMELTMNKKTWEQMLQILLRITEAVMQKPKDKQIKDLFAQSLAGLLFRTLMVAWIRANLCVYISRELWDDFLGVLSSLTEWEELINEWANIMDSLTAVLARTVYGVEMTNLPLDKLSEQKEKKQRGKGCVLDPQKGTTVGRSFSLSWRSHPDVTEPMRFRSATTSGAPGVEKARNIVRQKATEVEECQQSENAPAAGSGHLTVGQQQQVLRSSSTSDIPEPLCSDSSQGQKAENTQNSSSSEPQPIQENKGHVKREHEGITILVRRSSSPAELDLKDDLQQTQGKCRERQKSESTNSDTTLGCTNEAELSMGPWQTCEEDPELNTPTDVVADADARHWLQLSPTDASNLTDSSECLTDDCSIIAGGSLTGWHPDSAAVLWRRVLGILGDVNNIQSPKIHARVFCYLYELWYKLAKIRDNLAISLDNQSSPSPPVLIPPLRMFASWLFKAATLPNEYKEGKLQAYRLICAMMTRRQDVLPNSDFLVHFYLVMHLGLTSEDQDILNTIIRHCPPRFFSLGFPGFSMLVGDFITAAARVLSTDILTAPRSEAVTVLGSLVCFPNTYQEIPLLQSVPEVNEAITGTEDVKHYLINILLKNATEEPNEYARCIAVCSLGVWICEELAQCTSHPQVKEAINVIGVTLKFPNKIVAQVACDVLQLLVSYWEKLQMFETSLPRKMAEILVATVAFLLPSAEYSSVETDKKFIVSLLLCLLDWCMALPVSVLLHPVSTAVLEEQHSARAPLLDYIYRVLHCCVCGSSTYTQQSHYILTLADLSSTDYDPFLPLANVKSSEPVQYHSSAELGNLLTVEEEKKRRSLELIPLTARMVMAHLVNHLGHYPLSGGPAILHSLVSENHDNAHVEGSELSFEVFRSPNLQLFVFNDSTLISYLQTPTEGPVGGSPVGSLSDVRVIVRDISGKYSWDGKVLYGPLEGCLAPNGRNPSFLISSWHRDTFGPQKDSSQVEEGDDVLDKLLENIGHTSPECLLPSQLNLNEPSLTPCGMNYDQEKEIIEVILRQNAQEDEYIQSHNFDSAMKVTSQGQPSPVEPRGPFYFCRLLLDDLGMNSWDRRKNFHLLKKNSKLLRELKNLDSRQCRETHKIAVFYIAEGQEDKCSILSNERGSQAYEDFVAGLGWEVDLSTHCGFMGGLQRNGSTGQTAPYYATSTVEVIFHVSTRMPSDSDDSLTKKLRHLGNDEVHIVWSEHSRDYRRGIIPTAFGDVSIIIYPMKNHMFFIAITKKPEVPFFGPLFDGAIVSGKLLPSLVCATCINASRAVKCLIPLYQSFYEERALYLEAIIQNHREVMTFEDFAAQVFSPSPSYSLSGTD

B1: RalGAPβ (RGβ), full length, co-expressed in Expi293F and co-purified with FLAG-RGα2 (natural protein, UniProt Q86X10 1-1494, looked up)
chain: MYSEWRSLHLVIQNDQGHTSVLHSYPESVGREVANAVVRPLGQVLGTPSVAGSENLLKTDKEVKWTMEVICYGLTLPLDGETVKYCVDVYTDWIMALVLPKDSIPLPVIKEPNQYVQTILKHLQNLFVPRQEQGSSQIRLCLQVLRAIQKLARESSLMARETWEVLLLFLLQINDILLAPPTVQGGIAENLAEKLIGVLFEVWLLACTRCFPTPPYWKTAKEMVANWRHHPAVVEQWSKVICALTSRLLRFTYGPSFPAFKVPDEDASLIPPEMDNECVAQTWFRFLHMLSNPVDLSNPAIISSTPKFQEQFLNVSGMPQELNQYPCLKHLPQIFFRAMRGISCLVDAFLGISRPRSDSAPPTPVNRLSMPQSAAVSTTPPHNRRHRAVTVNKATMKTSTVSTAHASKVQHQTSSTSPLSSPNQTSSEPRPLPAPRRPKVNSILNLFGSWLFDAAFVHCKLHNGINRDSSMTAITTQASMEFRRKGSQMSTDTMVSNPMFDASEFPDNYEAGRAEACGTLCRIFCSKKTGEEILPAYLSRFYMLLIQGLQINDYVCHPVLASVILNSPPLFCCDLKGIDVVVPYFISALETILPDRELSKFKSYVNPTELRRSSINILLSLLPLPHHFGTVKSEVVLEGKFSNDDSSSYDKPITFLSLKLRLVNILIGALQTETDPNNTQMILGAMLNIVQDSALLEAIGCQMEMGGGENNLKSHSRTNSGISSASGGSTEPTTPDSERPAQALLRDYALNTDSAAGLLIRSIHLVTQRLNSQWRQDMSISLAALELLSGLAKVKVMVDSGDRKRAISSVCTYIVYQCSRPAPLHSRDLHSMIVAAFQCLCVWLTEHPDMLDEKDCLKEVLEIVELGISGSKSKNNEQEVKYKGDKEPNPASMRVKDAAEATLTCIMQLLGAFPSPSGPASPCSLVNETTLIKYSRLPTINKHSFRYFVLDNSVILAMLEQPLGNEQNDFFPSVTVLVRGMSGRLAWAQQLCLLPRGAKANQKLFVPEPRPVPKNDVGFKYSVKHRPFPEEVDKIPFVKADLSIPDLHEIVTEELEERHEKLRSGMAQQIAYEIHLEQQSEEELQKRSFPDPVTDCKPPPPAQEFQTARLFLSHFGFLSLEALKEPANSRLPPHLIALDSTIPGFFDDIGYLDLLPCRPFDTVFIFYMKPGQKTNQEILKNVESSRTVQPHFLEFLLSLGWSVDVGRHPGWTGHVSTSWSINCCDDGEGSQQEVISSEDIGASIFNGQKKVLYYADALTEIAFVVPSPVESLTDSLESNISDQDSDSNMDLMPGILKQPSLTLELFPNHTDNLNSSQRLSPSSRMRKLPQGRPVPPLGPETRVSVVWVERYDDIENFPLSELMTEISTGVETTANSSTSLRSTTLEKEVPVIFIHPLNTGLFRIKIQGATGKFNMVIPLVDGMIVSRRALGFLVRQTVINICRRKRLESDSYSPPHVRRKQKITDIVNKYRNKQLEPEFYTSLFQEVGLKNCSS
notes: RalGAPβ, common regulatory β-subunit of the RalGAP complexes; In the RalGAP tetramer two RGα2/RGβ heterodimers are joined by two RGβ; also called RGβ^fl; RGβ^WT; source: Expi293F cells, transfected, co-purified with RGα2 (M2 anti-FLAG beads; Superose 6 for cryo-EM)
binding result [1]: binds | binding result [2]: binds
